T1: RAPGEF6, Q8TEU7
T1 sequence (Q8TEU7 525-625, limits assumed, looked up): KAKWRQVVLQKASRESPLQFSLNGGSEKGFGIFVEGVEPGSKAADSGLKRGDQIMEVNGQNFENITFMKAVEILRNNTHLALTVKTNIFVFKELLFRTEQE

T2: PDZD2_2, O15018
T2 sequence (O15018 329-429, limits assumed, looked up): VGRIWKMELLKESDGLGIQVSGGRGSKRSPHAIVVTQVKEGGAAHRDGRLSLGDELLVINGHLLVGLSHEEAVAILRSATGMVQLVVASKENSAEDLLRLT

T3: MPDZ_12, O75970
T3 sequence (O75970 1857-1958, limits assumed, looked up): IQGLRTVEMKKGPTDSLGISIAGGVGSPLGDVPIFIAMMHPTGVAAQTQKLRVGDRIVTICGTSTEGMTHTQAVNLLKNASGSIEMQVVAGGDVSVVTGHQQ

T4: MPDZ_5, O75970
T4 sequence (O75970 695-796, limits assumed, looked up): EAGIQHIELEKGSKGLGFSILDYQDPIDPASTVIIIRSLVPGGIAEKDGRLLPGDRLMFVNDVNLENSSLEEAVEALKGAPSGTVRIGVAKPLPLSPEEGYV

T5: TIAM2, Q8IVF5
T5 sequence (Q8IVF5 885-986, limits assumed, looked up): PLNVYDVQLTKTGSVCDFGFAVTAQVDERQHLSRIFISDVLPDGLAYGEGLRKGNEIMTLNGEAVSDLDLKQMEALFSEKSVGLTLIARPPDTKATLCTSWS

T6: APBA1_1, Q02410
T6 sequence (Q02410 651-752, limits assumed, looked up): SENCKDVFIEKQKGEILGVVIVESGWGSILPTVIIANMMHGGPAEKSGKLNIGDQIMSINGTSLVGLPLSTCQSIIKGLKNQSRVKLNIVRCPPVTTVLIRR

T7: RHPN1, Q8TCX5
T7 sequence (Q8TCX5 508-602, limits assumed, looked up): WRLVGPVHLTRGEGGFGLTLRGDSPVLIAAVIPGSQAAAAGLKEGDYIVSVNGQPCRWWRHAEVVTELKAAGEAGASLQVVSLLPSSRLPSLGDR

T8: GRIP1_2, Q9Y3R0
T8 sequence (Q9Y3R0 145-248, limits assumed, looked up): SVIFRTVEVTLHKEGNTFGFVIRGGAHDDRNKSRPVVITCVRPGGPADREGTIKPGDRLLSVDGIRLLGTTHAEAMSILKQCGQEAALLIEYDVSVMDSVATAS

T9: PTPN13_1, Q12923
T9 sequence (Q12923 1088-1188, limits assumed, looked up): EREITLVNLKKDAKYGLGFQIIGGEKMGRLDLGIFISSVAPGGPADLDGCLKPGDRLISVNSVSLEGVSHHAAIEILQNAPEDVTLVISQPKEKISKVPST

T10: LNX2_3, Q8N448
T10 sequence (Q8N448 463-564, limits assumed, looked up): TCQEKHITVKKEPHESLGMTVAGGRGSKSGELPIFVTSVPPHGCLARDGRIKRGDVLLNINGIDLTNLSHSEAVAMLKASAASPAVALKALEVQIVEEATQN

B1: GRID2, O43424 (peptide)
chain: GNDPDRGTSI

Each binder was assayed against DLG2_3, Q15700 (assay: holdup assay). Conditions: plain residues with an end cap or a label only (N-terminal biotin on a linker: ado-ado).
Set-up: key: below the threshold = too weak to quantify, mostly under pKd 3.1 to 4

| pKd | Binder |
| --- | --- |
| 3.69 | B1 |

Each binder was assayed against MAGI2_2, Q86UL8 (assay: holdup assay). Conditions: plain residues with an end cap or a label only (N-terminal biotin on a linker: ado-ado).
Set-up: key: below the threshold = too weak to quantify, mostly under pKd 3.1 to 4

Chain of MAGI2_2, Q86UL8 (Q86UL8 410-522): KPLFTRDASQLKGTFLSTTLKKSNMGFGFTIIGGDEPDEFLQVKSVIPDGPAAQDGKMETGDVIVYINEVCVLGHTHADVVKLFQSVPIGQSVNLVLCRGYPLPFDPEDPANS

| pKd | Binder |
| --- | --- |
| below the threshold | B1 |

Each binder was assayed against T1, RAPGEF6, Q8TEU7 (assay: holdup assay). Conditions: plain residues with an end cap or a label only (N-terminal biotin on a linker: ado-ado).
Set-up: key: below the threshold = too weak to quantify, mostly under pKd 3.1 to 4

| pKd | Binder |
| --- | --- |
| below the threshold | B1 |

Each binder was assayed against T2, PDZD2_2, O15018 (assay: holdup assay). Conditions: plain residues with an end cap or a label only (N-terminal biotin on a linker: ado-ado).
Set-up: key: below the threshold = too weak to quantify, mostly under pKd 3.1 to 4

| pKd | Binder |
| --- | --- |
| 4.76 | B1 |

These binders were tested against DLG4_1, P78352 (assay: holdup assay). Conditions: plain residues with an end cap or a label only (N-terminal biotin on a linker: ado-ado).
Set-up: key: below the threshold = too weak to quantify, mostly under pKd 3.1 to 4

Chain of DLG4_1, P78352 (P78352 62-152): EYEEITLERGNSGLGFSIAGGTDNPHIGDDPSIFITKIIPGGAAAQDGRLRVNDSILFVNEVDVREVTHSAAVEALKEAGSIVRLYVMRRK

| pKd | Binder |
| --- | --- |
| below the threshold | B1 |

The binders below were run against T3, MPDZ_12, O75970 (assay: holdup assay). Conditions: plain residues with an end cap or a label only (N-terminal biotin on a linker: ado-ado).
Set-up: key: below the threshold = too weak to quantify, mostly under pKd 3.1 to 4

| pKd | Binder |
| --- | --- |
| below the threshold | B1 |

The binders below were run against HTRA2, O43464 (assay: holdup assay). Conditions: plain residues with an end cap or a label only (N-terminal biotin on a linker: ado-ado).
Set-up: key: below the threshold = too weak to quantify, mostly under pKd 3.1 to 4

Chain of HTRA2, O43464 (O43464 355-458): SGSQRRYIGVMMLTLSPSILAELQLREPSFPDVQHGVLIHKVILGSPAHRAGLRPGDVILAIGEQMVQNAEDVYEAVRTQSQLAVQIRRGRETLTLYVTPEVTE

| pKd | Binder |
| --- | --- |
| below the threshold | B1 |

These binders were tested against SNX27, Q96L92 (assay: holdup assay). Conditions: plain residues with an end cap or a label only (N-terminal biotin on a linker: ado-ado).
Set-up: key: below the threshold = too weak to quantify, mostly under pKd 3.1 to 4

| pKd | Binder |
| --- | --- |
| below the threshold | B1 |

What follows are binders tested against MAST2, Q6P0Q8 (assay: holdup assay). Conditions: plain residues with an end cap or a label only (N-terminal biotin on a linker: ado-ado).
Set-up: key: below the threshold = too weak to quantify, mostly under pKd 3.1 to 4

Chain of MAST2, Q6P0Q8 (Q6P0Q8 1099-1202): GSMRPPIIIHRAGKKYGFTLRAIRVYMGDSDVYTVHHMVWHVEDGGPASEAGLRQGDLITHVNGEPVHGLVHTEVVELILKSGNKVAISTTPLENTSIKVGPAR

| pKd | Binder |
| --- | --- |
| 4.45 | B1 |

The binders below were run against T4, MPDZ_5, O75970 (assay: holdup assay). Conditions: plain residues with an end cap or a label only (N-terminal biotin on a linker: ado-ado).
Set-up: key: below the threshold = too weak to quantify, mostly under pKd 3.1 to 4

| pKd | Binder |
| --- | --- |
| below the threshold | B1 |

Each binder was assayed against LAP2, Q96RT1 (assay: holdup assay). Conditions: plain residues with an end cap or a label only (N-terminal biotin on a linker: ado-ado).
Set-up: key: below the threshold = too weak to quantify, mostly under pKd 3.1 to 4

Chain of LAP2, Q96RT1 (Q96RT1 other isoform, or with tags, fused parts or gaps): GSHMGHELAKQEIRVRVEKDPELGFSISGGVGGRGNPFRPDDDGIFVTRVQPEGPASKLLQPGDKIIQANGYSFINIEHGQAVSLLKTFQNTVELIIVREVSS

| pKd | Binder |
| --- | --- |
| below the threshold | B1 |

These binders were tested against PARD3_3, Q8TEW0 (assay: holdup assay). Conditions: plain residues with an end cap or a label only (N-terminal biotin on a linker: ado-ado).
Set-up: key: below the threshold = too weak to quantify, mostly under pKd 3.1 to 4

Chain of PARD3_3, Q8TEW0 (Q8TEW0 582-685): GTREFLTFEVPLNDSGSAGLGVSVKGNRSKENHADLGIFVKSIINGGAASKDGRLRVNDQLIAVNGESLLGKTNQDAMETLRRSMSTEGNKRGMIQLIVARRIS

| pKd | Binder |
| --- | --- |
| below the threshold | B1 |

Each binder was assayed against FRMPD3, Q5JV73 (assay: holdup assay). Conditions: plain residues with an end cap or a label only (N-terminal biotin on a linker: ado-ado).
Set-up: key: below the threshold = too weak to quantify, mostly under pKd 3.1 to 4

Chain of FRMPD3, Q5JV73 (Q5JV73 12-100): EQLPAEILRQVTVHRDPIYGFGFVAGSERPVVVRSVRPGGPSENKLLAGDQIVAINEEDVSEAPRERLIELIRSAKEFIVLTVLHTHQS

| pKd | Binder |
| --- | --- |
| below the threshold | B1 |

These binders were tested against Inadl_1, Q8NI35 (assay: holdup assay). Conditions: plain residues with an end cap or a label only (N-terminal biotin on a linker: ado-ado).
Set-up: key: below the threshold = too weak to quantify, mostly under pKd 3.1 to 4

Chain of Inadl_1, Q8NI35 (Q8NI35 113-229): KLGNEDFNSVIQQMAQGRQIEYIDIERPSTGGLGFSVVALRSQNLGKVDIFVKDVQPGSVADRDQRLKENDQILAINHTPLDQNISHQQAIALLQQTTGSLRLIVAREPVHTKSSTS

| pKd | Binder |
| --- | --- |
| below the threshold | B1 |

Each binder was assayed against NOS1, P29475 (assay: holdup assay). Conditions: plain residues with an end cap or a label only (N-terminal biotin on a linker: ado-ado).
Set-up: key: below the threshold = too weak to quantify, mostly under pKd 3.1 to 4

Chain of NOS1, P29475 (P29475 9-101): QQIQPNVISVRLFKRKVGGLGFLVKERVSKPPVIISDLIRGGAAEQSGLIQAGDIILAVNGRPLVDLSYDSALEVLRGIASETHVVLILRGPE

| pKd | Binder |
| --- | --- |
| 3.75 | B1 |

The binders below were run against DLG1_1, Q12959 (assay: holdup assay). Conditions: plain residues with an end cap or a label only (N-terminal biotin on a linker: ado-ado).
Set-up: key: below the threshold = too weak to quantify, mostly under pKd 3.1 to 4

| pKd | Binder |
| --- | --- |
| below the threshold | B1 |

The binders below were run against T5, TIAM2, Q8IVF5 (assay: holdup assay). Conditions: plain residues with an end cap or a label only (N-terminal biotin on a linker: ado-ado).
Set-up: key: below the threshold = too weak to quantify, mostly under pKd 3.1 to 4

| pKd | Binder |
| --- | --- |
| 4.09 | B1 |

Each binder was assayed against T6, APBA1_1, Q02410 (assay: holdup assay). Conditions: plain residues with an end cap or a label only (N-terminal biotin on a linker: ado-ado).
Set-up: key: below the threshold = too weak to quantify, mostly under pKd 3.1 to 4

| pKd | Binder |
| --- | --- |
| below the threshold | B1 |

The binders below were run against T7, RHPN1, Q8TCX5 (assay: holdup assay). Conditions: plain residues with an end cap or a label only (N-terminal biotin on a linker: ado-ado).
Set-up: key: below the threshold = too weak to quantify, mostly under pKd 3.1 to 4

| pKd | Binder |
| --- | --- |
| below the threshold | B1 |

These binders were tested against T8, GRIP1_2, Q9Y3R0 (assay: holdup assay). Conditions: plain residues with an end cap or a label only (N-terminal biotin on a linker: ado-ado).
Set-up: key: below the threshold = too weak to quantify, mostly under pKd 3.1 to 4

| pKd | Binder |
| --- | --- |
| below the threshold | B1 |

Each binder was assayed against T9, PTPN13_1, Q12923 (assay: holdup assay). Conditions: plain residues with an end cap or a label only (N-terminal biotin on a linker: ado-ado).
Set-up: key: below the threshold = too weak to quantify, mostly under pKd 3.1 to 4

| pKd | Binder |
| --- | --- |
| below the threshold | B1 |

What follows are binders tested against FRMPD2_1, Q68DX3 (assay: holdup assay). Conditions: plain residues with an end cap or a label only (N-terminal biotin on a linker: ado-ado).
Set-up: key: below the threshold = too weak to quantify, mostly under pKd 3.1 to 4

Chain of FRMPD2_1, Q68DX3 (Q68DX3 770-861): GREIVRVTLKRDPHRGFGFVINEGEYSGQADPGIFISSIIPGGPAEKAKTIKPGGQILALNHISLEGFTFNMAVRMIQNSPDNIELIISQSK

| pKd | Binder |
| --- | --- |
| below the threshold | B1 |

What follows are binders tested against NHERF4_1, Q86UT5-2 (assay: holdup assay). Conditions: plain residues with an end cap or a label only (N-terminal biotin on a linker: ado-ado).
Set-up: key: below the threshold = too weak to quantify, mostly under pKd 3.1 to 4

Chain of NHERF4_1, Q86UT5-2 (Q86UT5 other isoform, or with tags, fused parts or gaps): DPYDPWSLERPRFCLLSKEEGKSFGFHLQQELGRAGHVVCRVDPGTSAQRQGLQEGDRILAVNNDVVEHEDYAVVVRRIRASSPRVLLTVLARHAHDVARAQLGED

| pKd | Binder |
| --- | --- |
| below the threshold | B1 |

These binders were tested against DLG4_3, P78352 (assay: holdup assay). Conditions: plain residues with an end cap or a label only (N-terminal biotin on a linker: ado-ado).
Set-up: key: below the threshold = too weak to quantify, mostly under pKd 3.1 to 4

Chain of DLG4_3, P78352 (P78352 306-403): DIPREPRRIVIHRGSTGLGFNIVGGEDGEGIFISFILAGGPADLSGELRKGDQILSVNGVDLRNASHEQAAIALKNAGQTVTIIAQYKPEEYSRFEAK

| pKd | Binder |
| --- | --- |
| below the threshold | B1 |

The binders below were run against LNX1_2, Q8TBB1 (assay: holdup assay). Conditions: plain residues with an end cap or a label only (N-terminal biotin on a linker: ado-ado).
Set-up: key: below the threshold = too weak to quantify, mostly under pKd 3.1 to 4

Chain of LNX1_2, Q8TBB1 (Q8TBB1 371-470): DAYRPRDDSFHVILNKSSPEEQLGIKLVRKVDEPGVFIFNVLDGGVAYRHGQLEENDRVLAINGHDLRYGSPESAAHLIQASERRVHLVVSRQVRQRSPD

| pKd | Binder |
| --- | --- |
| below the threshold | B1 |

These binders were tested against GRIP2_3, Q9C0E4 (assay: holdup assay). Conditions: plain residues with an end cap or a label only (N-terminal biotin on a linker: ado-ado).
Set-up: key: below the threshold = too weak to quantify, mostly under pKd 3.1 to 4

Chain of GRIP2_3, Q9C0E4 (Q9C0E4 238-339): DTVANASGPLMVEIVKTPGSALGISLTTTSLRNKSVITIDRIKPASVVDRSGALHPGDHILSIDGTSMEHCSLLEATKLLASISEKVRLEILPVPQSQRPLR

| pKd | Binder |
| --- | --- |
| below the threshold | B1 |

These binders were tested against T10, LNX2_3, Q8N448 (assay: holdup assay). Conditions: plain residues with an end cap or a label only (N-terminal biotin on a linker: ado-ado).
Set-up: key: below the threshold = too weak to quantify, mostly under pKd 3.1 to 4

| pKd | Binder |
| --- | --- |
| below the threshold | B1 |

Each binder was assayed against GRIP2_7, Q9C0E4 (assay: holdup assay). Conditions: plain residues with an end cap or a label only (N-terminal biotin on a linker: ado-ado).
Set-up: key: below the threshold = too weak to quantify, mostly under pKd 3.1 to 4

Chain of GRIP2_7, Q9C0E4 (Q9C0E4 934-1023): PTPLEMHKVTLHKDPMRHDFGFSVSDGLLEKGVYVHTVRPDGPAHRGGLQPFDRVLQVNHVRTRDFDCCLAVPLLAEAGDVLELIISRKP

| pKd | Binder |
| --- | --- |
| below the threshold | B1 |

From PMC9482650, “Quantitative fragmentomics allow affinity mapping of interactomes” (Nature Communications, 2022)
